Reference: paper doi:10.1101/826115

Molecular target: Respiratory complex I (mouse (endogenous in mouse tissues and L929 cells)) (UniProt Q9DC69)
Assay: Blue-DiS complexome profiling

UniProt Q9DC69, sequence (Q9DC69 whole entry, looked up, one chain of several): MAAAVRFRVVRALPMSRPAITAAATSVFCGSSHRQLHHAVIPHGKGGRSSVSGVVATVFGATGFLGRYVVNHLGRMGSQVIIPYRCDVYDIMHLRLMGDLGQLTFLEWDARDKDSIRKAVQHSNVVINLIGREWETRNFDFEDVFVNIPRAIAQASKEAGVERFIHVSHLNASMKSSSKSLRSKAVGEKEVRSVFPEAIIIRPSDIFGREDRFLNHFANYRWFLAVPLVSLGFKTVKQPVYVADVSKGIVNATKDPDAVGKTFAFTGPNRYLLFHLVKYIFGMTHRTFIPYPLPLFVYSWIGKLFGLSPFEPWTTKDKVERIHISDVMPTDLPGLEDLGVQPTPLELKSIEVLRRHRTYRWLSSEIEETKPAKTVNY

Substance | stoichiometry N
Respiratory complex III dimer (from UniProt Q9DB77 15-453) | 2 CIII:CI
Respiratory complex IV (from UniProt P00397 1-514) | 1 CI:CIV
